Results reported in the supplement of paper PMC9170038.

System: MS2 coat protein
Assay: apparent KD of MS2 coat protein; designed switch direction (-1 OFF switch, 1 ON switch): -1; higher = weaker reporter binding
Method in brief: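 The reported apparent KD is a per-design median over clusters, from curve fits of normalised cluster fluorescence. Protein titrations used SNAP-549-labelled MS2 coat protein, doubled from 0.7 or 1.5 nM to 3 µM, in Tris-HCl pH 7.5 buffer with KCl, MgCl2, BSA, DTT, tRNA and Tween-20, with no input, 200 uM small-molecule ligand, or an oligonucleotide input. The RNA switches were transcribed on Illumina chips by stalled E. coli RNA polymerase.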

[1] = input ligand: microRNA oligo, concentration not stated
[2] = Eterna round: R95, input ligand: microRNA oligo, concentration not stated

| Sequence | apparent KD of MS2 coat protein (input ligand: FMN 200 uM) [nM] | apparent KD of MS2 coat protein [1] [nM] | apparent KD of MS2 coat protein (input ligand: none) [nM] | apparent KD of MS2 coat protein [2] [nM] |
| --- | --- | --- | --- | --- |
| UAUCGGGACUGAGGAUAUUCGUUCGAACACGAAGAAGAAGGUAGUGUCAGGGACAUGAGGAUCACCCAUGUGAUCUCAGUCCUA [JL ViennaUCT Erinle mod 2] (Eterna round: R96, puzzle: Exclusion NG 1) | 130 | 67.9 | 100 |  |
| UAUCCGACAGGAUAUACAUGAGGAUCACCCAUGUACCCACUGUAUGUAACCUCAAACUGUAGAAGGGUUGAUAU [Eternabot (L1) Solution 18] (Eterna round: R97, puzzle: Exclusion 3) | 21.2 |  | 28.6 |  |
| CUCAUGUGAGGAUAUCACAUAGCGUCACGGCUGUAACAUUUUGAGAAGGCACAUGAGGAUCACCCAUGUGACAC [Eternabot (L2) Solution 79] (Eterna round: R97, puzzle: Exclusion 4) | 104 |  | 46.6 |  |
| GUGAAGUAAGGAUAUAGUGGAAAAGAUAAGGUAUGAGAGUUCUAGAAGGUACAUGAGGAUCACCCAUGUUAGGG [JR_Exclu4_Sub085] (puzzle: Exclusion 4) |  |  |  | 267 |
| GCAAGAUUCUGAGGAUAUGCGCUACAUCCCACAGCAGAAGGCGGAAAUUGACUGACAUGAGGAUCACCCAUGUGAUCCGCUUUC [Eternabot solution 33] (Eterna round: R96, puzzle: Exclusion NG 1) | 32.7 | 21.2 | 17.7 |  |
| UGACGAGUAGGAUAUUGGACUUGCGACAUGAGGAUCACCCAUGUGACGUCAACGUGGCACCAAGAAGGGCUACGUC [Gelareusdi] (puzzle: Exclusion 5) |  |  |  | 47.7 |
| GAUAGAGAGCAGGAUAUCUUGGGUAAGUAUCGUAGAGAAGGGCUCACAUGAGGAUCACCCAUGUGGUCCAAGAU [JL Dibiri mod 01] (puzzle: Exclusion 6) |  |  |  | 14.4 |
| GAAAUACAUGAGGAUCACCCAUGUAAGGAUAUGCUAGCGGUCGGCUGACUGACUGCUAGCAGAAGGUACAUGAU [Mat - Mod of JL D81] (puzzle: Exclusion 1) |  |  |  | 67.5 |
| AUAAUGUAAGGAUAUCAGUCGACUAGCUGCGGCUAGUCGACUGAGAAGGUACAUGAGGAUCACCCAUGUGAUUA [E4/10-A3] (Eterna round: R97, puzzle: Exclusion 4) | 889 |  | 138 |  |
| UAUAUAUAGUAAGGAUAUGUAUUAAGUUUAUAAACAGAAGGUACUGACAUGAGGAUCACCCAUGUUUUAGUGUGGGCAUGUAGA [JMF's solution 76] (Eterna round: R96, puzzle: Exclusion NG 1) | 122 | 52.6 | 78.6 |  |
| UCGAUGCGAGGAUAUACUAAGGCAACUACUGCAGCUCAAAAACAUGAGGAUCACCCAUGUAGAAGGCGCAUAUA [JR_Exc002_Sub304] (Eterna round: R96, puzzle: Exclusion 2) |  | 12.9 |  |  |
| UACUUCUGAGGAUAUACAUGAGGAUCACCCAUGUUGAUACCGACCUAAAGUCCAUUACGUAGAAGGCAGCAGUG [Eternabot (L1) Solution 91] (Eterna round: R97, puzzle: Exclusion 3) | 35.4 |  | 23.6 |  |
| ACGUUUUUUGAGGAUAUGCGACGUUUUUUCGUCGUAGAAGGCGAUACAUGAGGAUCACCCAUGUUUAUGGGCAU [LRO-Ex6-18] (puzzle: Exclusion 6) |  |  |  | 129 |
| UAUUAGCAAGUGAGGUCCCACAUGAGGAUCACCCAUGUGCUCGUCUUAUAAGGUACUGUGACGAAAGUCACGGUACC [Sensor 3, v1 - 95 v4] (Eterna round: R97, puzzle: Sensor, turn-off variant 1) | 48.7 |  | 40.8 |  |
| AACGUGCUGCGAGGAUAUACAUGAGGAUCACCCAUGUGGAUGUCUGAGGCAAAGCCUCAGACAAUGUAGAAGGCGCAGUACGAA [Mat - Exclusion NG 2 - Mod of JL - D57] (Eterna round: R96, puzzle: Exclusion NG 2) | 72.5 | 18.7 | 19.6 |  |
| ACCGAUGUGCAAGGAUAUGACAUGAGGAUCACCCAUGUCAAAACAAGAAGAACGGGUGUGCCUCCUUAGAAGGUGCACAAACGA [Eternabot solution 2] (Eterna round: R96, puzzle: Exclusion NG 2) | 26.1 | 17.1 | 24 |  |
| UCGUUCCGUGUAGGAUAUUGGCCUCCCUCGGGCCGAGAAGGACAUGAGGAUCACCCAUGUAUGUUAUUAUCGCGCGUGGCGCAU [Design 89] (Eterna round: R96, puzzle: Exclusion NG 1) | 113 | 14.5 | 20.8 |  |
| CCCAGGUCAUCUCCCGGGAACAACAUGAGGAUCACCCAUGUCUAGGAUAUCCACCAGUCAAUAAAGGAGAAGGAGACGGUGGUU [Edatarte] (Eterna round: R96, puzzle: Exclusion NG 3) |  | 20.2 |  |  |
| GGUUGGCGAGGAUAUACAUGAGGAUCACCCAUGUGAGAGAAAAAAGUGAGUAAGAAAAGUAGAAGGCGCUGACG [salish99-ex3-33] (Eterna round: R96, puzzle: Exclusion 3) | 401 | 51 | 47.3 |  |
| UCCCAACAUGAGGAUCACCCAUGUAAGGAUAUCCAUGGACGACGGCAUUGUUCCCGGCGGAGAAGGUGCAUGGU [EX1 B.21] (Eterna round: R97, puzzle: Exclusion 1) | 46.4 |  | 27.6 |  |
| GGAAAAAAAGUGAGGAUAUCCGGAGGGAAACCUCCGGAGAAGGCACAUGAGGAUCACCCAUGUAAAAAAAAAAA [AK-MS2ROC-r4-Bmoexclusion4-1] (Eterna round: R97, puzzle: Brourd's mod of Exclusion 4) | 59.9 |  | 30.5 |  |
| AAUUAGUAUGUGAGGAUAUUGACGGAAUGACUUGUUAAGAAGGCACAUGAGGAUCACCCAUGUGGGAAGUCACG [JR_BMEx4_Sub012] (Eterna round: R97, puzzle: Brourd's mod of Exclusion 4) | 57.1 |  | 18.1 |  |
| CACCGUUACCGAGGAUAUCGUACAUGAGGAUCACCCAUGUAAUAAAUGAGAAUUUCGGAUGUAUGCGAGAAGGCGGGAAUCGGC [Ostracism 35 - Jieux - Exclusion NG 2] (Eterna round: R96, puzzle: Exclusion NG 2) |  | 24.8 |  |  |
| AUGUUAUUCUGAGGAUAUUGUUUAAUCCUCUCACAUGAGGAUCACCCAUGUUUCCGUGUUUACCGCAAGAAGGCAGUUUUGUUU [JR_ExcNG2_Sub026] (Eterna round: R96, puzzle: Exclusion NG 2) | 63.6 | 48.7 | 61.8 |  |
